Publication PMC10357448

Assay: In vitro trypsin digestion, SDS-PAGE densitometry
Settings: glycan changed form; control: WT (HEK293), one N-glycan

B1: Interleukin-4 (IL-4): WT (P. pastoris) (protein)
parent chain: MGLTSQLLPPLFFLLACAGNFVHGHKCDITLQEIIKTLNSLTEQKTLCTELTVTDIFAASKNTTEKETFCRAATVLRQFYSHHEKDTRCLGATAQQFHRHKQLIRFLKRLDRNLWGLAGLNSCPVKEANQSTLENFLERLKTIMREKYSKCSS
  degradation_or_half_life, half_life: decreases, 2.6 ± 0.2 vs 4.9 ± 0.7
